FireProtDB (doi:10.1074/jbc.m304177200)

Details: Kitasatospora aureofaciens; pH 7; Thermal; CD; MOPS 30 mM; reversible: yes(>95%); whole UniProt chain shown

B1: Guanyl-specific ribonuclease Sa wild type, P05798 (protein)
chain: DVSGTVCLSALPPEATDTLNLIASDGPFPYSQDGVVFQNRESVLPTQSYGYYHEYTVITPGARTRGTRRIITGEATQEDYYTGDHYATFSLIDQTC
With B1 the Tm was 48.4 °C and the “unfolding enthalpy (van 't Hoff)” value was 95 kcal/mol.
